Patent US8008542B2, “Compositions, cells, and plants that include BKI1, a negative regulator of BRI1-mediated BR signaling” (The Salk Institute for Biological Studies, priority 2007, dated 2011)

Legend:
Arabidopsis seedlings = assay: Hypocotyl length and growth phenotype of transgenic lines; format: in vivo; conditions: over-expression from 35S promoter in Col-0
Protocol: BKI1's function in brassinosteroid signaling was explored in several ways. First, we made transgenic plants harboring a β-glucuronidase (GUS) reporter gene expressed from the promoter of BKI1 to observe the expression pattern of BKI1 (FIG. 1G-J) during development. […] To explore the function of BKI1 in BRI1 signaling, we created RNAi (RNA interference) lines to knockdown BKI1 RNA levels.
Seedlings were grown in short day photoperiods for seven days. At least ten short-day grown seedlings were measured. In FIGS. 2A-B the pBKI1::GUS line was used as a control (control). RNAi-2 and RNAi-7 were two independent RNAi knockdown lines for BKI1. In FIG. 2 C-E, phenotype of plants overexpressing BKI1-FLAG, with Col-0 (left) and a BKI1-FLAG line (right) are shown. 2C. Short-day grown seedlings. 2D. Long-day grown seedlings. 2E. Long-day grown adult plants. In FIG. 2F, leaf morphology of seedlings grown in short days. Col-0 (right) and a BKI1-FLAG line (left) are shown. In FIG. 2G, over-expression of BKI1-YFP leads to a reduced response (hypocotyl length) to BL. At least twenty short-day grown seedlings were measured. In FIG. 2H, over-expression of BKI1-YFP leads to an enhanced response to BRZ220. At least twenty dark-grown seedlings were measured. In FIG. 2I, over-expression of BKI1-YFP results in reduced accumulation of dephosphorylated BES1. […]

BRI1 kinase = biological target: T1, BRI1 kinase (Arabidopsis thaliana, UniProt O22476); assay: In vitro phosphorylation of MBP-BKI1 by BRI1 kinase; format: biochemical; conditions: MBP-BKI1, BRI1-KD-HIS, 200 μM ATP; read-out: Km as substrate of BRI1 kinase in vitro
T1 construct: The intracellular domain of BRI1(BRI1-KD) was cloned into pETBlue2 (Novagen) with a C-terminal His tag; made in house; host or cells: E. coli BL21 (DE3) Codon plus RIL
T1 sequence (O22476 883-1158 limits assumed): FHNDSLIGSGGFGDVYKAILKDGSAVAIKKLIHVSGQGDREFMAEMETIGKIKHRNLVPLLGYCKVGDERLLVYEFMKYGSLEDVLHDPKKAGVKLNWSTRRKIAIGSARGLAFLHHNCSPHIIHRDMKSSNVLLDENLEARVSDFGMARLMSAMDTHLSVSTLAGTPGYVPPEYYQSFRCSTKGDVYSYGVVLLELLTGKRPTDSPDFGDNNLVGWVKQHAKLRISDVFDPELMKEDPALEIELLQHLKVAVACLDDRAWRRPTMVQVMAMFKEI
Protocol: The intracellular domain of BRI1(BRI1-KD) was cloned into pETBlue2 (Novagen) with a C-terminal His tag. BKI1 was cloned into the pMAL-2cX vector (New England Biolabs) resulting in an Nterminal maltose-binding protein (MBP) fusion. BRI1-KD-HIS and MBP-BKI1 fusion proteins were expressed in BL21 (DE3) Codon plus RIL (Stratagene) and purified with Ni-NTA agarose (Qiagen) and […] (New England Biolabs), respectively. For the phosphorylation assays, each reaction contained 50 mM HEPES [pH7.4], 10 mM MgCl2, 10 mM MnCl2, 1 mM DTT, 200 μM ATP, 1 μl (10 μCi) [γ-32P] ATP, 0.5 μl of BRI1-His, different amounts of MBP-BKI1, and double deionized H2O in a final volume of 24 μl. Reactions were terminated by addition of 8 μl of 4×SDS loading buffer. Samples were separated on a 4-20% Tris-Glycine SDS-PAGE gel (Invitrogen), which was then stained, destained, dried, and visualized and quantified using a PhosphorImager. The kinetic analysis of the phosphorylation of MBP-BKI1 by BRI1 kinase was conducted with a GraphPad Prism 4 (http://www.graphpad.com/prism/Prism.htm). […] The BKI1-FLAG protein was detected by immunoblot analysis with anti-FLAG antibody.

B1: BKI1: BRI1-interacting protein of 337 amino acids, negative regulator of brassinosteroid signaling (SEQ ID NO:1) (protein, listed as Arabidopsis thaliana)
chain: METNLQQVKNSSQTFSEKQNPKQEASPSPISSTCSSPSHDFSFTISLQPLSSSSKHISPTLRSPSKTTSSYQQTDPFAVDLSPADEIFFHGHLLPLHLLSHLPVSPRTSTGSYNDGFTLPVKDILPDQPTNNNNNTENAITNISTEAKDDNTEDKAEGEIRVKTKPIKSFSLFGLSKWRKGFESNEREQEQQQQKIKKPMSLDLSHAVKKYIRMLFQKRGNGTQFWNRRQTSSYSFSSSLMGPNGNSKTMINGSYNKRDLIRGRRGELFSAPASMRTSPTNSGHLRVSTAGLSSSSGSTSSSSSDSTMEELQAAIQAAIAHCKNSSAVDRDDKVKDS
plant phenotype on over-expression (Arabidopsis seedlings): dwarf plants | Km (BRI1 kinase): ~1.55 µM
